Paper doi:10.1101/869214

Target: calf collagen type I (calf) (UniProt P02453)
Assay: ELISA

Chain of UniProt P02453 (P02453 162-1217, chain 1 of 2): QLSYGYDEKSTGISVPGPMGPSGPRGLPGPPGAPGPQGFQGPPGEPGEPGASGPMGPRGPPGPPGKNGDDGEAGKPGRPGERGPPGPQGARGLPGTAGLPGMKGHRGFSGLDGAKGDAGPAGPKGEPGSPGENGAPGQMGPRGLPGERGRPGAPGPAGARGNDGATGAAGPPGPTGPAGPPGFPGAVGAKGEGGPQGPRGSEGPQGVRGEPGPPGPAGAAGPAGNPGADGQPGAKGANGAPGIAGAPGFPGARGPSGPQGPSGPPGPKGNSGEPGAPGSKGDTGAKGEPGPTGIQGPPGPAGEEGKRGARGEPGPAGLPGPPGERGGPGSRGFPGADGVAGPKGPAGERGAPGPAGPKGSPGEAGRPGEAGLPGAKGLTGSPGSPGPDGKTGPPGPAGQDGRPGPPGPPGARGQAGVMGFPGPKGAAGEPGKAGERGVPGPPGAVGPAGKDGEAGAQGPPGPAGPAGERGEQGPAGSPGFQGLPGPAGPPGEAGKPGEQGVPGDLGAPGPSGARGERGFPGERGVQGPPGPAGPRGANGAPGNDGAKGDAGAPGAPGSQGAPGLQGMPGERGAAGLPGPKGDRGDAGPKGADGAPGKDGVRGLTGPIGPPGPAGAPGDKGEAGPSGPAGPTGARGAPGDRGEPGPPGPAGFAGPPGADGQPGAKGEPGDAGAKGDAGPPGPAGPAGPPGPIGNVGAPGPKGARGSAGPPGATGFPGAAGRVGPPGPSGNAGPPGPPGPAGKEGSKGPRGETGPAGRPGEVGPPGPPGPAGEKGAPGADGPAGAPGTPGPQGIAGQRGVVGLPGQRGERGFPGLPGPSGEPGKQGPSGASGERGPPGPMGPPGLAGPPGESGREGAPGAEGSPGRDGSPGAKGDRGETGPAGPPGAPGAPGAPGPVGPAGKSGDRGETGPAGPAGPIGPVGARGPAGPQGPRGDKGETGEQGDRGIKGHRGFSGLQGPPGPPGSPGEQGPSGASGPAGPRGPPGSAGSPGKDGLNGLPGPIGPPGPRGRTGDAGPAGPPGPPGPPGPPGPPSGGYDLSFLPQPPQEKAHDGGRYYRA
Chain of UniProt P02453 (P02465 80-1117, chain 2 of 2, further chain): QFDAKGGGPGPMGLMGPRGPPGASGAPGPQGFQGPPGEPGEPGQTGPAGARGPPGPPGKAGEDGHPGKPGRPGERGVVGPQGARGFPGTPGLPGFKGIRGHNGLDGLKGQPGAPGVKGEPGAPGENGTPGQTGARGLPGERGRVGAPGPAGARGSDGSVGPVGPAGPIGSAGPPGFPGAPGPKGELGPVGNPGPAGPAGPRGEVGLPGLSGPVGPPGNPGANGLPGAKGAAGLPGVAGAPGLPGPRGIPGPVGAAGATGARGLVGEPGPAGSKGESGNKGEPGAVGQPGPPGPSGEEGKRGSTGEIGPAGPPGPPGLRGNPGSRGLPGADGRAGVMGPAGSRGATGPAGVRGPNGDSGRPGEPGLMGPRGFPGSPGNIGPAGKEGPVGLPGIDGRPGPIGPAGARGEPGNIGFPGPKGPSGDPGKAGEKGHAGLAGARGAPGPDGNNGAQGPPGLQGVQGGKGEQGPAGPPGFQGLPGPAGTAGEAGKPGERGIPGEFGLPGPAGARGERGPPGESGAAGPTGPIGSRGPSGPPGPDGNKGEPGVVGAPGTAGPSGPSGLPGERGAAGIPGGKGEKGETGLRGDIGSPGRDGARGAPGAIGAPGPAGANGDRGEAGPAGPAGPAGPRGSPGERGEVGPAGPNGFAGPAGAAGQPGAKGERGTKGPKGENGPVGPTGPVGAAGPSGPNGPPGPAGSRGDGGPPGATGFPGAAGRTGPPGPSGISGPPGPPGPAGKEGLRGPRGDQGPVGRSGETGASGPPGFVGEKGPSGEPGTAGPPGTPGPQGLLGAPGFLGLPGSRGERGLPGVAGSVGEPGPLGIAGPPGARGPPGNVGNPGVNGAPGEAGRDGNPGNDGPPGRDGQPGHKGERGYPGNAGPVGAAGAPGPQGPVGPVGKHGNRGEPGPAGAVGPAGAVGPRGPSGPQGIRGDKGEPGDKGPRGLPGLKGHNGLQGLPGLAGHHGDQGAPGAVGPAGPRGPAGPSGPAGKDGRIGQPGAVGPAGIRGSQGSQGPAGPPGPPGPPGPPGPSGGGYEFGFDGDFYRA

percent binding at pH 4: 50%
Substance: Yersinia enterocolitica adhesin YadA head domains with a C-terminal His6-tag (domain or fragment)
